Experimental data taken from the Human Domainome abundance scans (Beltran et al. 2025).
± gives the uncertainty stated by the source.

B1: DnaJ homolog subfamily C member 2, residues 451 to 503; numbered along this chain, Q99543 (parent)
chain: SKNWSEDDLQLLIKAVNLFPAGTNSRWEVIANYMNIHSSSGVKRTAKDVIGKA

Variants of: B1
Test: abundance fitness (aPCA) (normalised: wild type 0, dead -1); higher = more abundant; growth selection in yeast, the domain comes from the species named
Conditions: Homo sapiens

Variant | abundance fitness
I13H | 0.042 ± 0.1
I13A | 0.14 ± 0.065
D48H | -0.539 ± 0.1
D48Y | -1.04 ± 0.19
A31M | -0.66 ± 0.11
A31N | -0.768 ± 0.16
Y33S | -0.87 ± 0.079
W4L | -0.229 ± 0.063
G51H | -0.206 ± 0.11
N17R | -0.036 ± 0.057
W27L | -0.597 ± 0.071
I30K | -0.873 ± 0.095
I50A | 0.085 ± 0.081
I50T | -0.267 ± 0.089
E28A | -0.278 ± 0.074
E28V | -0.259 ± 0.074
G22W | -0.293 ± 0.075
G22L | -0.484 ± 0.062
S38E | -0.609 ± 0.081
K2W | -0.334 ± 0.076
K2E | -0.096 ± 0.073

Variant | abundance fitness
R26S | -0.934 ± 0.29
S39N | -0.076 ± 0.1
P20G | -0.103 ± 0.066
A15F | -0.847 ± 0.12
A15W | -0.682 ± 0.1
T23Y | -0.201 ± 0.14
T23S | -0.276 ± 0.11
S5F | -0.654 ± 0.19
N24G | -0.276 ± 0.054
N24V | -0.068 ± 0.061
N24M | -0.056 ± 0.086
N24P | -0.066 ± 0.09
N24I | -0.09 ± 0.098
N35I | -0.86 ± 0.13
I36P | -0.994 ± 0.12
I36C | 0.043 ± 0.068
I36L | 0.049 ± 0.059
K14I | -0.296 ± 0.094
K14H | -0.05 ± 0.098
V29I | -0.127 ± 0.068
D8V | -0.937 ± 0.077
